Data from paper PMC8701324, “Structural Insight into the Mechanism of PALB2 Interaction with MRG15” (Genes, 2021).
Positions count from the first letter of the chain named. Where no end group is shown, it is not given here.

Tests used:
Conditions in all cases: both partners purified
[1] = biological target: T1, MRG15 MRG domain, amino acids 155-323 (UniProt Q9UBU8-2 155-323); assay: pull-down; His-tagged PALB2 peptide (0.1 mg/mL) bound to Ni-NTA beads, MRG15 155-323 (0.1 mg/mL) added for 30 min; Buffer B (25 mM HEPES pH 7.5, 10% glycerol, 2 mM CHAPS, 300 mM NaCl), washes with 20 mM imidazole, elution with 250 mM imidazole, SDS-PAGE
T1 construct: MRG15 (Morf-related gene on chromosome 15), MRG domain, amino acids 155-323; Cloned into the pET28b+-based pSMT3 vector; also called MRG15^155-323; MRG15 fragment; source: E. coli BL21*, purified (Ni-NTA, SUMO tag cleaved with Ulp1, second Ni-NTA flowthrough); not shown: 6xHis, N-terminal, cleaved; SUMO, N-terminal, cleaved

[2] = biological target: T1, MRG15 MRG domain, amino acids 155-323; assay: fluorescence polarisation; fluorescence anisotropy competition; mutant PALB2 597-630 peptides serially diluted from 10 uM to 0.6 nM against a preformed complex of MRG15 and FAM-PALB2; 25 mM HEPES pH 8.0, 1 mM TCEP, 10% DMSO, 200 mM NaCl; room temperature
[3] = biological target: T1, MRG15 MRG domain, amino acids 155-323; assay: fluorescence polarisation; fluorescence anisotropy; MRG15 fragment serially diluted from 10 uM to 0.6 nM against 10 nM FAM-PALB2 597-630; 25 mM HEPES pH 8.0, 1 mM TCEP, 10% DMSO, 200 mM NaCl; four-parameter logistic fit, EC50 taken as Kd

T1 sequence (Q9UBU8 194-362): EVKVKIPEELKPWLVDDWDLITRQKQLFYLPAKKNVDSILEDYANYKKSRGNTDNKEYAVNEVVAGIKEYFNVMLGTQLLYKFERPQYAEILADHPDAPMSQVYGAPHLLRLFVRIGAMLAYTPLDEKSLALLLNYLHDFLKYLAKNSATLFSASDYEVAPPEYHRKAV

B1: 6xHis-PALB2^597-630 (peptide, UniProt Q86YC2 597-630, looked up)
chain: MLSLKQLLSFLSITDFQLPDEDFGPLKLEKVKSC
notes: Cloned into pMCSG7; also called His-tagged PALB2 peptide; source: E. coli BL21*, purified (Ni-NTA from 8 M urea, washed down to 1 M urea); not shown: 6xHis, N-terminal, kept
binding result [1]: binds

B2: PALB2^597-630 peptide Pro615Ser (peptide, UniProt Q86YC2 597-630, looked up)
peptide: B1 chain with P19S
notes: also called Pro615 to serine; source: synthetic peptide, bought: Genscript Biotech
fold reduction in binding affinity against the wild-type peptide [2]: 5 fold

B3: PALB2^597-630 peptide Asp616His (peptide, UniProt Q86YC2 597-630, looked up)
peptide: B1 chain with D20H
notes: also called Asp616 with histidine; source: synthetic peptide, bought: Genscript Biotech
fold reduction in binding affinity against the wild-type peptide [2]: 2 fold

B4: PALB2^597-630 peptide Pro621Thr (peptide, UniProt Q86YC2 597-630, looked up)
peptide: B1 chain with P25T
notes: also called Pro621 by threonine; source: synthetic peptide, bought: Genscript Biotech
binding result [2]: binds

B5: fluorescein-labeled PALB2^597-630 peptide (peptide, UniProt Q86YC2 597-630, looked up)
peptide: B1 chain
modifications: also: fluorescein (FAM) label, position not given here
notes: also called FAM-PALB2; source: synthetic peptide, bought: Genscript Biotech
Kd [3]: 23.4 ± 5 nM
